Measurements from patent US5763240.

Target: RecA (UniProt P0A7G6)
Conditions: FITC-avidin confocal microscopy, permeabilized HEp-2 nuclei in agarose, 37 C; no signal without recA or with BSA

Sequence of RecA (P0A7G6 2-353): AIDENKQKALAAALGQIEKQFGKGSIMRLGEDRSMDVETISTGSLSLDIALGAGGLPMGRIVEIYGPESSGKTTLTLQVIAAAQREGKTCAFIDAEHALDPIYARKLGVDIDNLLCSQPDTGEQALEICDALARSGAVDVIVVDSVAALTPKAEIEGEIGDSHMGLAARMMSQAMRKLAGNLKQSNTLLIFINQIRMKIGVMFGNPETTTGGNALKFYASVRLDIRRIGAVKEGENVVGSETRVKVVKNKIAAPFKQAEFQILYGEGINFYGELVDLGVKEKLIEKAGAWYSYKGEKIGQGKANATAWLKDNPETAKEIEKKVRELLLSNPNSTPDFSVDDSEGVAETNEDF

Substance: human chromosome 1 alpha-satellite targeting polynucleotides (nick-translated pUC 1.77, denatured)
- binding (% nuclei with signal): > 25
